Test results: publication PMC7327923

Experiments:
[1] = biological target: Dps protein from Thermoleptolyngbya sp. O-77 (TlDps1) (Thermoleptolyngbya sp. O-77); assay: native gel or EMSA; native PAGE, 5-20% gel; TlDps1 in 10 mM Tris/HCl pH 8.0, also after DNase I treatment
[2] = biological target: Dps protein from Thermoleptolyngbya sp. O-77 (TlDps1) (Thermoleptolyngbya sp. O-77); assay: SEC-RALS; TlDps1 as isolated, 206 µg/mL; Superdex 200 Increase, 303 K, 10 mM Tris/HCl pH 8.0, 0.5 mL/min
[3] = biological target: Dps protein from Thermoleptolyngbya sp. O-77 (TlDps1) (Thermoleptolyngbya sp. O-77); assay: SDS/PAGE; 5-20% gel; sample buffer with 2% SDS and 14.4 mM 2-mercaptoethanol; incubated 10 min at 298, 323 or 348 K before loading
[4] = biological target: Dps protein from Thermoleptolyngbya sp. O-77 (TlDps1) (Thermoleptolyngbya sp. O-77); assay: crystal structure; hanging drop, 293 K, TlDps1 4.0 mg/mL in 10 mM Tris/HCl pH 8.0 with 0.15 M cesium chloride and 18% PEG 3350; 2.9 Å; six subunits in the asymmetric unit

Measured: stoichiometry N

Dps protein from Thermoleptolyngbya sp. O-77 (TlDps1) (natural protein)
12: [1] | [2] | [3] | [4]
